Publication PMC10786891, “Massively parallel profiling of RNA-targeting CRISPR-Cas13d”
Substitutions are numbered along the chain they refer to. Names may count otherwise.

T1: EsCas13d, nuclease-dead (Eubacterium siraeum, UniProt B0MS50, R295A;H300A;R849A;H854A)
T1 sequence: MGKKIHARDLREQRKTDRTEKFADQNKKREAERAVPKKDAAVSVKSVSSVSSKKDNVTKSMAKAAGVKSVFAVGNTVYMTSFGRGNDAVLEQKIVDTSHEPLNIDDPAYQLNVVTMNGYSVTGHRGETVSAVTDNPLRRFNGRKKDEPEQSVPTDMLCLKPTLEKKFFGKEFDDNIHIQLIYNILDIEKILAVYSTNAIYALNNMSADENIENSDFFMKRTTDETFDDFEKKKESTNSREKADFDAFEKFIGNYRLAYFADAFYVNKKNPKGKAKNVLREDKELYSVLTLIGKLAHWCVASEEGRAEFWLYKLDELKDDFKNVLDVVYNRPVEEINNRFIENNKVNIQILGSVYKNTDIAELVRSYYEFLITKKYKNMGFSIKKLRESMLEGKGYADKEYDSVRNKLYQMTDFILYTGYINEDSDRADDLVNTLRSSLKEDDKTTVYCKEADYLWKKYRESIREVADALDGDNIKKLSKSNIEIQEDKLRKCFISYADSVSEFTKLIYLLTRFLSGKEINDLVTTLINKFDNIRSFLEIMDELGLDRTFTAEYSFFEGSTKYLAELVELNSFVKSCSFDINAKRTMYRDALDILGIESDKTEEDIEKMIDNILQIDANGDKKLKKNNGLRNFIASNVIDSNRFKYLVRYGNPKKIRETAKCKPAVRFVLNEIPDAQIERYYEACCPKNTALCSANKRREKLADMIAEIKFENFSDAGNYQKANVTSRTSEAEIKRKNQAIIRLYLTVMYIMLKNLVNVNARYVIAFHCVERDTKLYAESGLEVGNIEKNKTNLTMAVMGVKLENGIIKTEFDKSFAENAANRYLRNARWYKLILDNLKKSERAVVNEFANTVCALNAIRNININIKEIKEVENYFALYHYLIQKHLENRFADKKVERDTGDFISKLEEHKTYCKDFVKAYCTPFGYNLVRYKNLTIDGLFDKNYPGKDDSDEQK

B1: target 1 insC 3' of 16,insC 3' of 14 (mixed)
RNA 1: CACCCGUGCAAAAAUGCAGGGGUCUAAAACUGAGCGGAUAACCUCUCUAUGG
RNA 2: GGGAAUGGAUCCACAUCUACGAAUUCGUACCAUAGACGACGGUUAUCCGCUCACCGAGAUCGGAAGAGCACACGU
B2: target 1 G5C,U8C (mixed)
RNA 1: B1 RNA 1
RNA 2: GGGAAUGGAUCCACAUCUACGAAUUCGUACCAUAGAGAGGUUACCCCCUCACCGAGAUCGGAAGAGCACACGU
B3: target 1 C2U,G12A (mixed)
RNA 1: B1 RNA 1
RNA 2: B2 RNA 2 with G40A, C44U, C47G, C50U
B4: target 1 insU 3' of 18,insG 3' of 11 (mixed)
RNA 1: B1 RNA 1
RNA 2: B1 RNA 2 with G35U, A36G, C37A, C40G, G42U, U43G
B5: target 3 G19U,U22G (mixed)
RNA 1: CACCCGUGCAAAAUUGCAGGGGUCUAAAACGACCUGAAUAUUUCAGAUCAAA
RNA 2: GGGAAUGGAUCCACAUCUACGAAUUCGUUGUUUAUCUGAAAUAUUCAGGUCUGCAGAUCGGAAGAGCACACGU
B6: target 3 insC 3' of 4,insA 3' of 1 (mixed)
RNA 1: B5 RNA 1
RNA 2: GGGAAUGGAUCCACAUCUACGAAUUCGUUUUUGAUCUGAAAUAUUCAGCGUCAUGCAGAUCGGAAGAGCACACGU
B7: target 3 insC 3' of 4,insU 3' of 1 (mixed)
RNA 1: B5 RNA 1
RNA 2: B6 RNA 2 with A53U
B8: target 3 insC 3' of 7,insA 3' of 6 (mixed)
RNA 1: B5 RNA 1
RNA 2: B6 RNA 2 with A47C, G48A, C49A, U51G, C52U, A53C
B9: target 3 del1,del2 (mixed)
RNA 1: B5 RNA 1
RNA 2: GGGAAUGGAUCCACAUCUACGAAUUCGUUUUUGAUCUGAAAUAUUCAGGUGCAGAUCGGAAGAGCACACGU
B10: target 3 insC 3' of 4,insC 3' of 4 (mixed)
RNA 1: B5 RNA 1
RNA 2: B6 RNA 2 with G50C, U51G, C52U, A53C
B11: target 3 C6U (mixed)
RNA 1: B5 RNA 1
RNA 2: B5 RNA 2 with G30U, U33G, C46U
B12: target 3 insA 3' of 6,insU 3' of 4 (mixed)
RNA 1: B5 RNA 1
RNA 2: B6 RNA 2 with G48A, C49G, G50U, U51G, C52U, A53C
B13: target 3 G4U,C6A (mixed)
RNA 1: B5 RNA 1
RNA 2: B5 RNA 2 with G30U, U33G, C46A, G48U
B14: target 3 insU 3' of 22,insA 3' of 6 (mixed)
RNA 1: B5 RNA 1
RNA 2: GGGAAUGGAUCCACAUCUACGAAUUCGUUUUUUGAUCUGAAAUAUUCAAGGUCUGCAGAUCGGAAGAGCACACGU
B15: target 3 insC 3' of 5,insA 3' of 2 (mixed)
RNA 1: B5 RNA 1
RNA 2: B6 RNA 2 with G48C, C49G, C52A, A53C
B16: target 3 insC 3' of 22,insA 3' of 2 (mixed)
RNA 1: B5 RNA 1
RNA 2: B14 RNA 2 with U31C, A49G, G51U, U52A
B17: target 3 insU 3' of 9,insC 3' of 9 (mixed)
RNA 1: B5 RNA 1
RNA 2: B6 RNA 2 with U45C, C46U, A47U, G48C, C49A, U51G, C52U, A53C
B18: target 3 insA 3' of 22,insG 3' of 5 (mixed)
RNA 1: B5 RNA 1
RNA 2: B14 RNA 2 with U31A, A49G
B19: target 3 insA 3' of 3,insC 3' of 2 (mixed)
RNA 1: B5 RNA 1
RNA 2: B6 RNA 2 with C49G, G50A, A53C
B20: target 3 insA 3' of 7,insG 3' of 2 (mixed)
RNA 1: B5 RNA 1
RNA 2: B6 RNA 2 with C46A, A47C, G48A, C49G, C52G, A53C
B21: target 3 insA 3' of 3,insC 3' of 3 (mixed)
RNA 1: B5 RNA 1
RNA 2: B6 RNA 2 with C49G, G50A, U51C, C52U, A53C
B22: target 3 U2A,U22A (mixed)
RNA 1: B5 RNA 1
RNA 2: B5 RNA 2 with G30A, U33G, U50A
B23: target 3 C6U,U21G (mixed)
RNA 1: B5 RNA 1
RNA 2: B5 RNA 2 with G30U, U31G, U33G, C46U
B24: target 3 insU 3' of 6,insC 3' of 3 (mixed)
RNA 1: B5 RNA 1
RNA 2: B6 RNA 2 with A47U, G48A, C49G, U51C, C52U, A53C
B25: target 3 insC 3' of 4,insC 3' of 2 (mixed)
RNA 1: B5 RNA 1
RNA 2: B6 RNA 2 with A53C
B26: target 3 insC 3' of 5,insG 3' of 5 (mixed)
RNA 1: B5 RNA 1
RNA 2: B6 RNA 2 with G48C, C49G, U51G, C52U, A53C
B27: target 3 C1U,G14U (mixed)
RNA 1: B5 RNA 1
RNA 2: B5 RNA 2 with G30U, U33G, G38U, C51U
B28: target 3 C1A,G14U (mixed)
RNA 1: B5 RNA 1
RNA 2: B5 RNA 2 with G30U, U33G, G38U, C51A
B29: target 3 G3C,U22G (mixed)
RNA 1: B5 RNA 1
RNA 2: B5 RNA 2 with U33G, G49C
B30: target 3 insC 3' of 5,insU 3' of 1 (mixed)
RNA 1: B5 RNA 1
RNA 2: B6 RNA 2 with G48C, C49G, A53U
B31: target 3 insG 3' of 6,insG 3' of 6 (mixed)
RNA 1: B5 RNA 1
RNA 2: B6 RNA 2 with A47G, C49A, U51G, C52U, A53C
B32: target 3 A5G,A11G (mixed)
RNA 1: B5 RNA 1
RNA 2: B5 RNA 2 with G30U, U33G, A41G, A47G
B33: target 3 A11C,U22A (mixed)
RNA 1: B5 RNA 1
RNA 2: B5 RNA 2 with G30A, U33G, A41C

Molecular target: T1, EsCas13d, nuclease-dead
Assay: crRNA (strand 1, pre-loaded); Mg2+; 40 mM Tris-HCl pH 7.5, 150 mM NaCl, 6 mM MgCl2, 1 mM DTT, 0.1% Tween-20, 0.2 mg/ml BSA; 25 C; 10 min per concentration, then washed
Conditions: tags: His6-TwinStrep-SUMO cleaved; N-terminal SNAP kept (SNAP-Surface 488); label: 3' end held by stalled T7 RNA polymerase

Binder	Kd
B1	75 ± 19 nM
B2	6.4 ± 0.4 nM
B3	4.5 ± 0.14 nM
B4	78 ± 21 nM
B5	108 ± 15 nM
B6	69.5 ± 28.5 nM
B7	72.5 ± 33.5 nM
B8	76 ± 14 nM
B9	44.5 ± 2.55 nM
B10	34.5 ± 8.5 nM
B11	13.2 ± 1.05 nM
B12	2.25 ± 0.23 nM
B13	29.5 ± 7.5 nM
B14	7.2 ± 0.55 nM
B15	15.8 ± 1.6 nM
B16	59 ± 10 nM
B17	96.5 ± 19 nM

Binder	Kd
B18	23.1 ± 3.4 nM
B19	120 ± 50 nM
B20	28.2 ± 4.15 nM
B21	22.8 ± 2.35 nM
B22	32.8 ± 2.85 nM
B23	110 ± 40 nM
B24	28.6 ± 2.95 nM
B25	73 ± 24 nM
B26	5.57 ± 0.52 nM
B27	72.5 ± 19 nM
B28	79 ± 30.5 nM
B29	79.5 ± 13 nM
B30	10.8 ± 1.25 nM
B31	23.6 ± 3.2 nM
B32	73.5 ± 28.5 nM
B33	~90 nM
